# Test results from patent publication US5942491A (priority 1996, dated 1999).
# Entries after “also recorded” stand apart in the source; their conditions may differ. Like-named read-outs stand apart in the source and are kept apart here. Where no end group is shown, it is not given here.
# Assays:
# adjuvant arthritis [1] = format: in vivo, Lewis rats
# adjuvant arthritis [2] = test system: adjuvant arthritis; design: species or system Lewis rats; conditions: rat, in vivo
# adjuvant arthritis [3] = conditions: for Development of experimental allergic encephalomyelitis (EAE): arthritogenic doses of CFA (Mb) combined with MBP
# adjuvant arthritis [4] = assay: Adjuvant-induced model of arthritis, summary statements on prevention and treatment; format: in vivo, Lewis rats; conditions: summary statement
Molecule,"Effect on the course of pre-existing arthritis (adjuvant arthritis [1]; rat, in vivo)",Protective effect against induction of adjuvant arthritis (adjuvant arthritis [2]),Development of experimental allergic encephalomyelitis (EAE) (adjuvant arthritis [3]),Development of experimental allergic encephalomyelitis (EAE) (adjuvant arthritis [3]; listed as MBP),"A. Number of animals inoculated/number of animals with arthritis (adjuvant arthritis [3]; rat, in vivo)","C. Average day of onset of arthritis (adjuvant arthritis [3]; rat, in vivo) [days]","D. Average duration of symptoms (adjuvant arthritis [3]; rat, in vivo) [days]","Effect of co-inoculation with FCA on arthritis (in words) (adjuvant arthritis [3]; rat, in vivo)","Effect of co-inoculation with FCA on arthritis (in words) (adjuvant arthritis [3]; rat, in vivo, listed as MBP)","Remission of arthritis (adjuvant arthritis [1]; rat, in vivo)",Anti-arthritic activity after storage (adjuvant arthritis [1]; solvated and kept in refrigerator at 4 degrees centigrade for three months),Prevention and suppression/treatment of arthritis (summary in words) (adjuvant arthritis [4]; listed as MBP),Prevention and suppression/treatment of arthritis (summary in words) (adjuvant arthritis [4]; listed as pMBP)
"FSWGAEGQR [EAE peptide, EAE peptide derived from MBP, reference compound]",somewhat effective,,,,,,,,,,,,
"OA: chicken ovalbumin (Sigma) (protein, UniProt P01012 2-386, looked up) Ovalbumin: GSIGAASMEFCFDVFKELKVHHANENIFYCPIAIMSALAMVYLGAKDSTRTQINKVVRFDKLPGFGDSIEAQCGTSVNVHSSLRDILNQITKPNDVYSFSLASRLYAEERYPILPEYLQCVKELYRGGLEPINFQTAADQARELINSWVESQTNGIIRNVLQPSSVDSQTAMVLVNAIVFKGLWEKAFKDEDTQAMPFRVTEQESKPVQMMYQIGLFRVASMASEKMKILELPFASGTMSMLVLLPDEVSGLEQLESIINFEKLTEWTSSNVMEERKIKVYLPRMKMEEKYNLTSVLMAMGITDVFSSSANLSGISSAESLKISQAVHAAHAEINEAGREVVGSAEAGVDAASVSEEFRADHPFLFCIKHIATNAVLFFGRCVSP",,very significant protective effects against induction of adjuvant arthritis; also recorded: protective,,,,,,,,,,,
"BP: Porcine myelin basic protein (Lilly) (protein, UniProt P81558 1-171, looked up) Myelin basic protein: ASQKRPSQRHGSKYLASASTMDHARHGFLPRHRDTGIDSLGRFFGADRGAPKRGSGKDGHHAARTTHYGSLPQKAQHGRPQDENPVVHFFKNIVTPRTPPPSQGKGRGLSLSRFSWGAEGQKPGFGYGGRAPDYKPAHKGLKGAQDAQGTLSKIFKLGGRDSRSGSPMARR","marked effect on the course of the arthritis, reducing the clinical severity of the disease",minimal protective effects that were of limited clinical value,developed experimental allergic encephalomyelitis (EAE),All six animals developed EAE,0/6,0,0,did not develop any symptoms of arthritis over a period of 2 months,none had any clinical signs or arthritis,complete remission in all three animals tested,no activity,prevent and suppress arthritis,appear to protect against and to effectively treat pre-existing arthritis clinical symptoms
